Source: patent EP4640708A1 (Chimagen Biosciences, Ltd, dated 2025)

Experiments:
[1] = biological target: T1, human GPRC5D (hGPRC5D) on cells (human, UniProt Q9NZD1 1-345); experiment: flow cytometry, MM.1R cells naturally expressing GPRC5D
T1 construct: whole, on cells; also called HEK293-hGPRC5D; CHOS-hGPRC5D

[2] = biological target: T1, human GPRC5D (hGPRC5D) on cells; experiment: flow cytometry, RPMI-8226 cells naturally expressing GPRC5D
[3] = biological target: T1, human GPRC5D (hGPRC5D) on cells; experiment: flow cytometry, NCI-H929 cells naturally expressing GPRC5D

T1 sequence (Q9NZD1 whole entry): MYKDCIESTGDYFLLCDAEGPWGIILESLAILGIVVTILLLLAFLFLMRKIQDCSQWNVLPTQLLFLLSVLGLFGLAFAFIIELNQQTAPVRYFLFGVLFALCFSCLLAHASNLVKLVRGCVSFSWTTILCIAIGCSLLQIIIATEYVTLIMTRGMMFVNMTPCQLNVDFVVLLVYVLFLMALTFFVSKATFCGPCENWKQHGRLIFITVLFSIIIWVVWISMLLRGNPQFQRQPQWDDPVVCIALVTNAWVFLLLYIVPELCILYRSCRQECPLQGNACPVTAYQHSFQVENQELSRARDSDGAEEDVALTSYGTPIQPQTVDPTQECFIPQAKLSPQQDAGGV

EC50 [1]: 7.2 µg/mL
EC50 [2]: 14.3 µg/mL
EC50 [3]: 9.52 µg/mL
B1: GC5B596 (antibody, V domains shown)
VH: QVQLVQSGAEVKKPGASVKVSCKASGYSFTGYTMNWVRQAPGQGLEWMGLINPYNSDTNYAQKLQGRVTMTTDTSTSTAYMELRSLRSDDTAVYYCARVALRVALDYWGQGTLVTVSS
VL: DIQMTQSPSSLSASVGDRVTITCKASQNVATHVGWYQQKPGKAPKRLIYSASYRYSGVPSRFSGSGSGTEFTLTISNLQPEDFATYYCQQYNRYPYTFGQGTKLEIKR
